Measured values: paper PMC2133194
Where two headings read alike, the source gives them in different places.

What was measured:
Assay in all cases: flow cytometry on cells
[1] = target: human CD34 on CHO/FTVII/C2GnT cells cotransfected with KSGal6ST and HEC-GlcNAc6ST (human) (UniProt P28906)
[2] = target: human CD34 on CHO/FTVII/C2GnT cells cotransfected with HEC-GlcNAc6ST (human) (UniProt P28906)
[3] = target: human CD34 on CHO/FTVII/C2GnT cells cotransfected with KSGal6ST (human) (UniProt P28906)
[4] = target: human CD34 on CHO/FTVII/C2GnT cells cotransfected with KSGal6ST and HEC-GlcNAc6ST (human) (UniProt P28906); remark: listed apart in the source
[5] = target: human CD34 on CHO/FTVII/C2GnT cells cotransfected with HEC-GlcNAc6ST (human) (UniProt P28906); remark: listed apart in the source
[6] = target: human CD34 on CHO/FTVII/C2GnT cells cotransfected with KSGal6ST (human) (UniProt P28906); remark: listed apart in the source

An MFI of L-sel/IgM staining (KSGal6ST 0.5 ug, HEC-GlcNAc6ST 0.5 ug) [1] of 935 MFI, an MFI of L-sel/IgM staining (KSGal6ST 0.5 ug, HEC-GlcNAc6ST 1.0 ug) [1] of 830 MFI and an MFI of L-sel/IgM staining (KSGal6ST 1.0 ug, HEC-GlcNAc6ST 0.5 ug) [1] of 917 MFI were found for “L-selectin/IgM chimera (from UniProt P18337 39-332) (Fc fusion)” in this work. For the same substance, the MFI of L-sel/IgM staining (KSGal6ST 0 ug, HEC-GlcNAc6ST 1.0 ug) [2] was 114 MFI, the MFI of L-sel/IgM staining (KSGal6ST 0 ug, HEC-GlcNAc6ST 1.5 ug) [2] was 163 MFI and the MFI of L-sel/IgM staining (KSGal6ST 1.0 ug, HEC-GlcNAc6ST 0 ug) [3] was 364 MFI. It also gave an MFI of L-sel/IgM staining (KSGal6ST 1.5 ug, HEC-GlcNAc6ST 0 ug) [3] of 391 MFI, an MFI of L-sel/IgM staining (KSGal6ST 0.5 ug, HEC-GlcNAc6ST 0.5 ug) [4] of 836 MFI and an MFI of L-sel/IgM staining (KSGal6ST 0 ug, HEC-GlcNAc6ST 1.0 ug) [5] of 60 MFI. It also gave an MFI of L-sel/IgM staining (KSGal6ST 1.0 ug, HEC-GlcNAc6ST 0 ug) [6] of 197 MFI.
